Experimental data reported in the Immune Epitope Database (IEDB).

How the values were obtained:
HLA-B*40:01 = experiment: IEDB peptide-MHC binding, purified MHC/direct/fluorescence; filed as Kd, often an IC50 or EC50 that approximates it; ≥ and ≤ were set here for values at or beyond the usual limits of such assays
HLA-A*30:02 = experiment: IEDB peptide-MHC binding, purified MHC/competitive/radioactivity; filed as Kd, often an IC50 or EC50 that approximates it; ≥ and ≤ were set here for values at or beyond the usual limits of such assays
HLA-B*44:02 = experiment: as above; conditions: source organism: Dengue virus 3 Martinique/1243/1999
HLA-B*08:01 = experiment: as above
HLA-B*15:01 = experiment: IEDB peptide-MHC binding, purified MHC/direct/fluorescence; filed as Kd, often an IC50 or EC50 that approximates it; ≥ and ≤ were set here for values at or beyond the usual limits of such assays
HLA-A*02:01 [1] = experiment: as above
HLA-A*69:01 = experiment: as above
HLA-A*02:01 [2] = experiment: IEDB peptide-MHC binding, purified MHC/competitive/fluorescence; ≥ and ≤ were set here for values at or beyond the usual limits of such assays
HLA-A*03:01 = experiment: IEDB peptide-MHC binding, purified MHC/direct/fluorescence; filed as Kd, often an IC50 or EC50 that approximates it; ≥ and ≤ were set here for values at or beyond the usual limits of such assays
HLA-A*31:01 = experiment: as above
HLA-A*30:01 = experiment: IEDB peptide-MHC binding, purified MHC/competitive/radioactivity; filed as Kd, often an IC50 or EC50 that approximates it; ≥ and ≤ were set here for values at or beyond the usual limits of such assays
HLA-A*01:01 [3] = experiment: as above
HLA-A*26:01 = experiment: as above
HLA-B*07:02 = experiment: IEDB peptide-MHC binding, purified MHC/direct/fluorescence; filed as Kd, often an IC50 or EC50 that approximates it; ≥ and ≤ were set here for values at or beyond the usual limits of such assays; conditions: source organism: Escherichia coli O157:H7
HLA-B*27:05 = experiment: as above; conditions: source organism: Escherichia coli O157:H7
HLA-B*58:01 = experiment: as above
HLA-B*39:01 = experiment: IEDB peptide-MHC binding, purified MHC/competitive/fluorescence; filed as Kd, often an IC50 or EC50 that approximates it; ≥ and ≤ were set here for values at or beyond the usual limits of such assays; conditions: source organism: Bacillus anthracis str. A2012
HLA-A*11:01 [4] = experiment: IEDB peptide-MHC binding, purified MHC/competitive/radioactivity; filed as Kd, often an IC50 or EC50 that approximates it; ≥ and ≤ were set here for values at or beyond the usual limits of such assays; conditions: source organism: Dengue virus 1 Brazil/97-11/1997
HLA-A*11:01 [5] = experiment: IEDB peptide-MHC binding, purified MHC/direct/fluorescence; filed as Kd, often an IC50 or EC50 that approximates it; ≥ and ≤ were set here for values at or beyond the usual limits of such assays
HLA-A*01:01 [6] = experiment: as above; conditions: source organism: Yersinia enterocolitica
HLA-A*02:02 = experiment: IEDB peptide-MHC binding, purified MHC/competitive/radioactivity; filed as Kd, often an IC50 or EC50 that approximates it; ≥ and ≤ were set here for values at or beyond the usual limits of such assays; conditions: source organism: SARS coronavirus Tor2
HLA-A*02:03 = experiment: as above; conditions: source organism: SARS coronavirus Tor2
HLA-A*02:06 = experiment: as above; conditions: source organism: SARS coronavirus Tor2
[7] = source organism: Dengue virus 1 Brazil/97-11/1997
[8] = source organism: Mycobacterium tuberculosis variant bovis
[9] = source organism: Zaire ebolavirus
[10] = source organism: Burkholderia pseudomallei
[11] = source organism: Vaccinia virus WR
[12] = source organism: Dengue virus 4 Philippines/H241/1956
[13] = source organism: Dengue virus 2 Jamaica/1409/1983
[14] = source organism: Dengue virus 3 Martinique/1243/1999
[15] = source organism: Escherichia coli O157:H7
[16] = source organism: Mycobacterium tuberculosis
[17] = source organism: Francisella tularensis subsp. holarctica LVS
[18] = source organism: Haemophilus influenzae
[19] = source organism: Yersinia enterocolitica
[20] = source organism: Salmonella enterica subsp. enterica serovar Typhimurium

## AELRHLNPL
HLA-B*40:01; source organism: Mycobacterium tuberculosis variant bovis BCG str. Pasteur 1173P2
  Kd: 0.0442 µM

## AGGMLIACY
HLA-A*30:02; [7]
  Kd: 0.46 µM

## AICSAVPVHW
HLA-B*44:02
  Kd: 2.4 µM

## AIKRKLRTL
HLA-B*08:01; [7]
  Kd: 17.3 nM

## AISAQVAAY
HLA-B*15:01; source organism: Mycobacterium tuberculosis F11
  Kd: 1.27 µM

## ALASFLFGF
HLA-B*15:01; source organism: Pseudomonas aeruginosa
  Kd: 0.745 µM

## ALPGPDGVV
HLA-A*02:01 [1]; [8]
  Kd: 0.553 µM
HLA-A*69:01; [8]
  Kd: ≥ 20 µM

## ALSSLAKHG
HLA-A*02:01 [2]; [9]
  IC50: ≥ 91.8 µM

## ALVCGLRQL
HLA-A*02:01 [2]; source organism: Sudan ebolavirus
  IC50: 22.8 µM

## AQAIGRVER
HLA-A*03:01; [10]
  Kd: ≥ 20 µM
HLA-A*31:01; [10]
  Kd: 0.0373 µM

## ATKNGNIFV
HLA-A*30:01; [11]
  Kd: 0.00385 µM

## CIAVGMVTLY
HLA-A*01:01 [3]; [7]
  Kd: 1.38 µM
HLA-A*26:01; [7]
  Kd: 0.483 µM

## CMKSFFGWK
HLA-A*03:01; source organism: Influenza A virus (A/duck/Fujian/17/2001(H5N1))
  Kd: 0.848 µM

## CPRKRKTVE
HLA-B*08:01; [11]
  Kd: 581 nM

## EEITPHCAL
HLA-B*40:01; source organism: Mammarenavirus lassaense
  Kd: 0.0266 µM

## ELDLHFQRI
HLA-B*08:01; [11]
  Kd: 3260 nM

## EMADITGSSP
HLA-A*26:01; [12]
  Kd: ≥ 46.7 µM

## EMAEALKGM
HLA-A*26:01; [7]
  Kd: 8.32 µM

## ETKQTGSASS
HLA-A*26:01; [13]
  Kd: ≥ 25 µM

## ETPNMDVIGE
HLA-A*26:01; [14]
  Kd: 1.1 µM

## ETWVETWAF
HLA-A*02:01 [1]; [15]
  Kd: ≥ 20 µM
HLA-A*03:01; [15]
  Kd: ≥ 20 µM
HLA-B*07:02
  Kd: ≥ 20 µM
HLA-B*15:01; [15]
  Kd: 1.17 µM
HLA-B*27:05
  Kd: ≥ 20 µM
HLA-B*58:01; [15]
  Kd: 3 µM

## FCIKILNPY
HLA-A*26:01; [7]
  Kd: 7.7 µM

## FHMSKPSDL
HLA-B*39:01
  Kd: 0.0077 µM

## FLKHKYGSL
HLA-B*08:01; [11]
  Kd: 0.135 nM

## FTEENQWDSA
HLA-A*01:01 [3]; [14]
  Kd: 0.197 µM

## FTNMEVQLI
HLA-A*01:01 [3]; [7]
  Kd: 5.85 µM

## FYRKKFRPL
HLA-B*08:01; [11]
  Kd: 0.0879 nM

## GCGRGGWSY
HLA-A*30:02; [14]
  Kd: 0.439 µM

## GLFLTTEAV
HLA-A*02:01 [2]; [16]
  IC50: 0.05 µM

## GLFPFHFTL
HLA-A*02:01 [1]; [16]
  Kd: 0.0004 µM

## GMHMVAGHD
HLA-A*02:01 [2]; [9]
  IC50: 67.8 µM

## GSLLTCAKFK
HLA-A*11:01 [4]
  Kd: 0.0968 µM
HLA-A*30:01; [7]
  Kd: 0.433 µM

## GTTATITPQA
HLA-A*30:01; source organism: Dengue virus 1 Nauru/West Pac/1974
  Kd: 0.839 µM

## GVYTGSIGY
HLA-A*03:01; [17]
  Kd: 0.0026 µM
HLA-A*11:01 [5]; [17]
  Kd: 0.0016 µM

## HTIENTTAN
HLA-A*26:01; [7]
  Kd: 2.29 µM

## HVLMHSPLV
HLA-A*30:01; [11]
  Kd: 0.0299 µM

## IIGRRLQRL
HLA-B*08:01; [12]
  Kd: 128 nM

## ILWGYGFLQ
HLA-A*02:01 [1]; [18]
  Kd: 0.218 µM
HLA-A*69:01; [18]
  Kd: 12.9 µM
HLA-B*58:01; [18]
  Kd: 4.79 µM

## IMDASSFTL
HLA-A*01:01 [6]
  Kd: 5.7 µM
HLA-A*02:01 [1]; [19]
  Kd: 0.0308 µM
HLA-A*69:01; [19]
  Kd: 0.997 µM
HLA-B*15:01; [19]
  Kd: 0.139 µM
HLA-B*40:01; [19]
  Kd: 0.432 µM
HLA-B*58:01; [19]
  Kd: 0.0495 µM

## IQQLPETYF
HLA-A*02:01 [1]; source organism: SARS-CoV1
  Kd: 16.8 µM
HLA-A*11:01 [5]; source organism: SARS-CoV1
  Kd: ≥ 51 µM
HLA-B*15:01; source organism: SARS-CoV1
  Kd: 0.188 µM
HLA-B*58:01; source organism: SARS-CoV1
  Kd: ≥ 23.4 µM

## IRSEELSFT
HLA-A*02:01 [2]; [9]
  IC50: ≥ 2410 µM

## KCIEYVTLN
HLA-A*02:01 [2]; source organism: Vaccinia virus Copenhagen
  IC50: ≥ 125 µM

## KLWAQCVQL
HLA-A*02:01 [1]; source organism: SARS-CoV1
  Kd: 0.109 µM
HLA-A*03:01; source organism: SARS-CoV1
  Kd: 2.86 µM
HLA-A*31:01; source organism: SARS-CoV1
  Kd: 0.303 µM
HLA-A*02:02
  Kd: 0.0127 µM
HLA-A*02:03
  Kd: 0.194 µM
HLA-A*02:06
  Kd: 0.00947 µM

## KQPNRPLFI
HLA-A*02:01 [1]; [20]
  Kd: 6 µM
HLA-A*69:01; [20]
  Kd: ≥ 20 µM

## KTNTGTIGA
HLA-A*30:01; [13]
  Kd: 0.00294 µM

## KVKFYKREL
HLA-A*30:01; [11]
  Kd: 0.0419 µM

## KVLDGSPIS
HLA-A*30:01; [11]
  Kd: 0.43 µM

## KVSSKHQLV
HLA-A*30:01; [11]
  Kd: 0.014 µM

## LAKRFSRGLL
HLA-B*08:01; source organism: Dengue virus 3 Singapore/8120/1995
  Kd: 1480 nM

## LALITVSGLY
HLA-A*01:01 [3]; [12]
  Kd: 12.7 µM
HLA-A*30:02; [12]
  Kd: 0.00526 µM
